B1: F131 (antibody, V domains shown)
VH: EVQLLESGGGVVQPGRSLRLSCAASGFTFSSYGMHWVRQAPGKGLEWVAVISYDGSNKYYADSVKGRFTISRANSKNTLYLQMNSLRAEDTAVYYCARPRAYYGAYGSSFDYWGQGTQVTVSS
VL: EIVMTQSPSSVSASVGDRVAITCRASQGISSWLAWYQQKPGKAPKLLIYAASSLQSGVPSRFSGSGSGTDFTLTISSLQPEDFATYYCQQSYSTPLTFGGGTKVDIK
notes: also called clone F131; F131 mAb
B2: F131-LD038 (antibody, V domains shown)
VH: B1 VH
VL: B1 VL
modifications: drug-linker LD038 (PB038, maleimide-PEG unit-Val-Cit-PAB-exatecan) on cysteines freed by TCEP reduction; positions not given
notes: Antibody-drug conjugate of F131 (IgG1) with LD038; also called anti-huFOLR-1 conjugate F131-LD038; F131-038

Legend:
[1] = target: T1, cynomolgus FOLR1 protein, His Tag (ACRO F01-C52H8) (cynomolgus, UniProt A0A2K5U044 25-233); assay: ELISA, coated cyno FOLR1-His, supernatant 5x
T1 construct: Bought protein coated on ELISA plates; also called Cynomolgus/Rhesus macaque FOLR1, Protein, His Tag; not shown: His tag

[2] = target: T2, human FOLR1 protein, His Tag (ACRO FO1-H52H1) (human, UniProt P15328 25-233); assay: ELISA, coated hFOLR1-His, supernatant 5x
T2 construct: Bought protein coated on ELISA plates; not shown: His tag

[3] = target: T3, cynomolgus monkey FOLR1 extracellular domain linked to His tag (cynomolgus monkey, UniProt A0A2K5U044 25-233); assay: BLI, Ag 15.6 nM over Ab on anti-hIgG Fc tip
T3 construct: extracellular domain; Antigen in solution in BLI; It may be the same product as m14; also called Cyno-Ag; not shown: His tag

[4] = target: T4, human FOLR1 extracellular domain linked to His tag (human, UniProt P15328 25-233, limits assumed); assay: BLI, Ag 15.6 nM over Ab on anti-hIgG Fc tip
T4 construct: extracellular domain; It may be the same product as m13; also called Hu-FRα; Hu-Ag; not shown: His tag

[5] = target: T4, human FOLR1 extracellular domain linked …; assay: BLI, global 1:1 fit (31.3 nM row)
[6] = target: T5, human FOLR2 extracellular domain linked to His tag (human, UniProt P14207 17-230, limits assumed); assay: BLI, global 1:1 fit (31.3 nM row)
T5 construct: extracellular domain; Antigen in solution in BLI; also called Hu-FRb; not shown: His tag

[7] = target: T1, cynomolgus FOLR1 protein, His Tag (ACRO …); assay: ELISA, coated cyno FOLR1-His, supernatant 25x
[8] = target: T6, rat FOLR1 extracellular domain linked to His tag (rat); assay: BLI, Ag 62.5 nM; * = below range of quantification
T6 construct: extracellular domain; Antigen in solution in BLI; also called Rat-Ag

[9] = target: T4, human FOLR1 extracellular domain linked …; assay: BLI, global 1:1 fit (500 nM row); Table 12 run (species FOLR α panel, Hu-Ag)
[10] = target: T2, human FOLR1 protein, His Tag (ACRO …); assay: ELISA, coated hFOLR1-His, supernatant 1x
[11] = target: T2, human FOLR1 protein, His Tag (ACRO …); assay: ratio of OD450 on hFOLR1 to OD450 on anti-human IgG Fc
[12] = target: T2, human FOLR1 protein, His Tag (ACRO …); assay: ELISA, coated hFOLR1-His, supernatant 25x
[13] = target: T4, human FOLR1 extracellular domain linked …; assay: BLI, global 1:1 fit (500 nM row); Table 11 run (FOLR family panel, Hu-FRα)
[14] = target: T1, cynomolgus FOLR1 protein, His Tag (ACRO …); assay: ELISA, coated cyno FOLR1-His, supernatant 1x
[15] = target: T2, human FOLR1 protein, His Tag (ACRO …); assay: ELISA, coated hFOLR1-His, HEK293 supernatant
[16] = target: T6, rat FOLR1 extracellular domain linked …; assay: BLI, global 1:1 fit (62.5 nM row); all responses below quantification
[17] = target: T7, mouse FOLR1 extracellular domain linked to His tag (mouse, UniProt P35846 25-232, limits assumed); assay: BLI, global 1:1 fit (500 nM row); only the 500 nM response quantifiable; only the 500 nM response quantifiable; R^2 0.6807
T7 construct: extracellular domain; Antigen in solution in BLI; also called Mouse-Ag; not shown: His tag

[18] = target: T4, human FOLR1 extracellular domain linked …; assay: BLI, Ag 125 nM over Ab on anti-hIgG Fc tip
[19] = target: T5, human FOLR2 extracellular domain linked …; assay: BLI, Ag 125 nM over Ab on anti-hIgG Fc tip
[20] = target: T3, cynomolgus monkey FOLR1 extracellular …; assay: BLI, Ag 7.82 nM over Ab on anti-hIgG Fc tip
[21] = target: T4, human FOLR1 extracellular domain linked …; assay: BLI, Ag 7.82 nM over Ab on anti-hIgG Fc tip
[22] = target: T4, human FOLR1 extracellular domain linked …; assay: BLI, Ag 62.5 nM over Ab on anti-hIgG Fc tip
[23] = target: T5, human FOLR2 extracellular domain linked …; assay: BLI, Ag 62.5 nM over Ab on anti-hIgG Fc tip

T5 sequence (P14207 17-230 limits assumed): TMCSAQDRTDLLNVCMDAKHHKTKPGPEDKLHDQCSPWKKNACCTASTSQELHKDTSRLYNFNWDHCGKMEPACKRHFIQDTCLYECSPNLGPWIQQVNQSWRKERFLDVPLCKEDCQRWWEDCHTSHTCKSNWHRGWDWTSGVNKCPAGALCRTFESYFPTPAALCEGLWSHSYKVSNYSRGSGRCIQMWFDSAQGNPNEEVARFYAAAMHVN
T3 sequence (A0A2K5U044 entry or part of it): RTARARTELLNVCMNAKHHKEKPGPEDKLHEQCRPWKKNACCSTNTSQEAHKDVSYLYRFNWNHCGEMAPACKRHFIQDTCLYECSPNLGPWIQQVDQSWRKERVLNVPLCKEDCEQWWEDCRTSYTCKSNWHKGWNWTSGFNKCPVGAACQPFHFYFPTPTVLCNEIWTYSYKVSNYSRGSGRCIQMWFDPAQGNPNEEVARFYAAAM
T1 sequence (A0A2K5U044 entry or part of it): as above
T4 sequence (P15328 25-233 limits assumed): as the sequence (A0A2K5U044 entry or part of it) above, with T2I, R4W, K37R, P146A, Y171H counted along it
T2 sequence (P15328 25-233 limits assumed): as the sequence (A0A2K5U044 entry or part of it) above, with T2I, R4W, K37R, P146A, Y171H counted along it
T7 sequence (P35846 25-232 limits assumed): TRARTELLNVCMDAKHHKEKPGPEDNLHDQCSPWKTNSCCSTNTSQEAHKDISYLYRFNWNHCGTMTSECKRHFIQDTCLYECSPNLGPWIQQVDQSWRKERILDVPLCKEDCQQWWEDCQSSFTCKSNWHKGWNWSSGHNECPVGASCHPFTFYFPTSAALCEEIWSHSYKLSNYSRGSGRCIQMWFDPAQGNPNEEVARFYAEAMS

Binder | Response [3] | Response [4] | Kd [5] | koff [5] | kon [5] | Kd [6] | koff [6] | kon [6] | Response [8] | koff [16] | kon [16] | Response [18] | Response [19] | Response [20] | Response [21] | Response [22] | Response [23] | other results
B1 | 0.0485 | 0.0503 | 5.3 nM | 0.0012 s⁻¹ | 226000 M⁻¹ s⁻¹ | 142 nM | 0.0784 s⁻¹ | 552000 M⁻¹ s⁻¹ | -0.00606 | 1.03 s⁻¹ | 5490 M⁻¹ s⁻¹ | 0.144 | 0.0188 | 0.0537 | 0.04 | 0.117 | 0.0356 | OD450 [1]: 1.27 OD450; OD450 [2]: 1.52 OD450; OD450 [7]: 1.09 OD450; Kd [9]: 1.53 nM; OD450 [10]: 1.61 OD450; Target binding/IgG level [11]: 1.02; OD450 [12]: 1.38 OD450; Kd [13]: 5.3 nM; OD450 [14]: 1.2 OD450; OD450 [15]: 2.35 OD450; Kd [17]: 2960 nM
B2 | 0.0384 | 0.0447 | 4.79 nM | 0.00121 s⁻¹ | 252000 M⁻¹ s⁻¹ | 84.4 nM | 0.0813 s⁻¹ | 963000 M⁻¹ s⁻¹ | -0.00393 | 0.224 s⁻¹ | 2.64e+06 M⁻¹ s⁻¹ | 0.176 | 0.0161 | 0.0225 | 0.0342 | 0.138 | 0.0379 | 

Reference: patent publication US20240245796A1 (PROFOUNDBIO US, published 2024)
